By Kd is commonly meant the free concentration of one partner at which half of the binding sites on the other are occupied at equilibrium, for simple one-to-one binding.

The target in series [1] is T1, HIV-1 reverse transcriptase (HIV RT) (Human immunodeficiency virus) (UniProt P03366+P03366). The series can be described thus: EMSA. Conditions: TNA at all positions; ~500 pM after 1 h 37 C with snake venom phosphodiesterase (p160). (In general: Mobility shift assays separate free from complexed probe on a gel.)
For series [2], the target named is T1, HIV-1 reverse transcriptase (HIV RT) (Human immunodeficiency virus). The series can be described thus: MST. The following applies: TNA at all positions; triplicate.

On to “AATAGTAAATTGATTTAAAAATTTCATAAATGCTACATAA [HIV-RT 3.17]”, for which the results for the Kd in series [1] and in series [2] were 0.196 nM and 0.38 nM, respectively.

Values taken from US20200347384.
